From PMC10215190

Target: recombinant PhaC (PHA synthase Class III) from Arthrospira platensis (Arthrospira platensis)
Experiment: SEC; Sephadex-G50 column, 100 mM sodium phosphate pH 7.4, 1 mL/min, A280; masses estimated from retention times of standards (alcohol dehydrogenase 150 kDa, BSA 66 kDa, ovalbumin 44 kDa); dimer and monomer peaks both seen

recombinant PhaC (PHA synthase Class III) from Arthrospira platensis (enzyme)
stoichiometry N: 2
